In article PMC2172734:

Target: Abi1, endogenous in mouse fibroblasts (mouse (endogenous in MEFs)) (UniProt Q8CBW3)
Assay: co-IP

Sequence of UniProt Q8CBW3 (Q8CBW3 whole entry): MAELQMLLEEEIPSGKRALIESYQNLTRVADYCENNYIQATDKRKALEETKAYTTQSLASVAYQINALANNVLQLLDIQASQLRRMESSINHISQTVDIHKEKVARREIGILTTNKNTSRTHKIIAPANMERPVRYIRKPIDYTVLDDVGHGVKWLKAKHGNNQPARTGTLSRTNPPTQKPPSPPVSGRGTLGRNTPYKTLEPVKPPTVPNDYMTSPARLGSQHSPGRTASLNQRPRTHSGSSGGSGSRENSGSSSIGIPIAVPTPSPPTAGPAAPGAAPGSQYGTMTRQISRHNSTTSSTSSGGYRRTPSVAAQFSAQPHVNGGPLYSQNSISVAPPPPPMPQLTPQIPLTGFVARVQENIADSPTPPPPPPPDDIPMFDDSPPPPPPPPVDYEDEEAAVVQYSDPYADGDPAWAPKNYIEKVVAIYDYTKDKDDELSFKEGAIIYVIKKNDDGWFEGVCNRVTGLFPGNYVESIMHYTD

percent of total p85 associated with Abi1 immunoprecipitates: 1%
Substance: p85 (regulatory subunit of class I PI3K), endogenous in mouse fibroblasts (from UniProt P26450 1-724) (natural protein)
